Residue numbers refer to the chain shown, from its start. Several values for one entry are separate records, joined by “and”; a condition that tells them apart may be missing. Equal values may be shown once.
What was measured:
complement protein C5 = molecular target: T1, complement protein C5 (human, UniProt P01031 19-1676, limits assumed); assay: indirect ELISA, C5 coated at 0.3 µg/ml
T1 construct: Purchased antigen coated on the ELISA plate; Natural C5 is processed into beta and alpha chains from one precursor; also called human C5
T1 sequence (P01031 19-1676 limits assumed): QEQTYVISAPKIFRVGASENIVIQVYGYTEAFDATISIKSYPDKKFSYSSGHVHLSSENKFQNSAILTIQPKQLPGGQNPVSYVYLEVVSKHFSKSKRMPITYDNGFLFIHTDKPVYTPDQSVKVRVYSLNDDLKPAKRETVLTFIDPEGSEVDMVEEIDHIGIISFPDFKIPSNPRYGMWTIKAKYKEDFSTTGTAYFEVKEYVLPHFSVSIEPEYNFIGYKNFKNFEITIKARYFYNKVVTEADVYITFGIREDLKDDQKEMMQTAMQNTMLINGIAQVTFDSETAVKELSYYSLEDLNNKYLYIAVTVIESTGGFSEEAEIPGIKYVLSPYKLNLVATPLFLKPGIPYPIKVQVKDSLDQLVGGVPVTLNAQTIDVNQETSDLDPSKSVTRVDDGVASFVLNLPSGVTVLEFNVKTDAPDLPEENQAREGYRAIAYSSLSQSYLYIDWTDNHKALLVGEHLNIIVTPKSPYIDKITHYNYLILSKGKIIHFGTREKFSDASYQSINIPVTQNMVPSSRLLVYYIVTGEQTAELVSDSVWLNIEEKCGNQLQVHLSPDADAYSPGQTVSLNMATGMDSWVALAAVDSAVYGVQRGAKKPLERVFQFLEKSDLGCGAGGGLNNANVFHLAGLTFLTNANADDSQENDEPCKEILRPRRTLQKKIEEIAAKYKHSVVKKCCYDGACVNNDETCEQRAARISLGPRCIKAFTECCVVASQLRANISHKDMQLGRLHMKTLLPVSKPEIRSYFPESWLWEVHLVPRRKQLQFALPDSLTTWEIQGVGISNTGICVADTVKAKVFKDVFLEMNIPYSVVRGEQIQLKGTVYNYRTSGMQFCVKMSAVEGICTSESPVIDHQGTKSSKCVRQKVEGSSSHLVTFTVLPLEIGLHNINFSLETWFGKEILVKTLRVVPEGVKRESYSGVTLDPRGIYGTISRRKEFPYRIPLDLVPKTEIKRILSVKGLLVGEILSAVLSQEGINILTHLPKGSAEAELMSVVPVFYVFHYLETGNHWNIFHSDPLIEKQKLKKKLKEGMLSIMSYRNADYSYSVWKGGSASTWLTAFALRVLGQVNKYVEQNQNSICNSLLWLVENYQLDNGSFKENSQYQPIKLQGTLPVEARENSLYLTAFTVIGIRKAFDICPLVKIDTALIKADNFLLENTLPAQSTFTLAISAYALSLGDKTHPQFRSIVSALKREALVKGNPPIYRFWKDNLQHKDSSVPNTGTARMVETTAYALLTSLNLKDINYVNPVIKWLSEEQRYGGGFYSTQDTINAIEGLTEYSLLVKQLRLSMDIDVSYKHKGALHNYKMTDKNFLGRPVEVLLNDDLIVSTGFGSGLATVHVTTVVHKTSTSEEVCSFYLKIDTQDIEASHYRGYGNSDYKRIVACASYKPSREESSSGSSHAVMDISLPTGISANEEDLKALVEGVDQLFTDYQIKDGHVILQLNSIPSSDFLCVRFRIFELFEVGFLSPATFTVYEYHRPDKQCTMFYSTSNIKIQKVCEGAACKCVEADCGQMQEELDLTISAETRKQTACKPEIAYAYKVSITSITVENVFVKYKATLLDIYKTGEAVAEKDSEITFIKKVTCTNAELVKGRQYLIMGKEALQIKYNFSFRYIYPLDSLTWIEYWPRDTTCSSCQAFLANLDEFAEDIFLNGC
Description: The experimental method is as follows: Dilute the antigen with C5 (purchased from Nearshore Technology Co., Ltd.) to 0.3 μg/ml with PBS; add 100 μl/well of the diluted antigen to a 96-well plate, cover, overnight at 4° C.; shake off The liquid in the well was washed three times with PBS, 200 μl/well, and patted dry; blocked with 5% milk-PBS 200 μl/well for 1 hour, and tapped every 15 minutes; the liquid in the well was shaken off, washed once with PBS, 200 μl/well, and patted dry; Add purified antibody (0-10 μg/ml) in a gradient, see Table 4 for antibody name, 5% milk-PBS dilution, 100 μl/well, incubate for 1 h, tap every 15 min; shake off the liquid in the well, wash three times with PBS, 200 μl/well, pat dry; add secondary antibody, diluted in 5% milk-PBS, 100 μl/well, incubate for 1 h, tap every 15 min; preheat TMB substrate at room temperature, and turn on the microplate reader to preheat; wash 5 times with PBS, 250μl/well, the first three times 5 min, the last two times 10 min, pat dry; add 50 μl/well of TMB substrate AB each, and develop color at room temperature for 20 min; use a scanner to scan and record the picture, add 50 μl/well of stop solution, use enzyme labeling The meter reads OD450.

[1] = molecular target: T2, rIFN γ (recombinant human interferon γ) (human, UniProt P01579 24-166, limits assumed); assay: indirect ELISA, factor coated at 1 µg/ml
T2 construct: Purchased coating factor
T2 sequence (looked up): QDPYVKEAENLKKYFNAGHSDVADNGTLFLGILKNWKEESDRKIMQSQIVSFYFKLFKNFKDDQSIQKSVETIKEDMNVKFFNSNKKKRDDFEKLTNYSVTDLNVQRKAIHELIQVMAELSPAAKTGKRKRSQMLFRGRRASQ
Description: (§1) The specific experimental process is as follows: C5, C3, C3b, rIFN γ (recombinant human interferon γ), IL-1α, IL-1β, IL-2, IL-4 and IL-8 (purchased from Inshore Technology, respectively) were mixed with PBS. Co., Ltd.), dilute the antigen to 1 μg/ml; add 100 μl/well of the diluted antigen to a 96-well plate, cover, overnight at 4° C.; shake off the liquid in the well, wash three times with PBS, 200 μl/well, manually Pat dry; block with 200 μl/well of 5% milk, block for 1 h, tap the edge of the ELISA plate every 15 minutes to promote the reaction; shake off the liquid in the well, wash once with PBS, 200 μl/well, pat dry by hand; add different light chains Heavy chain combination antibody, diluted in 5% milk, 100 μl/well, incubated for 1 h, tap the edge of the ELISA plate every 15 min to promote the reaction; shake off the liquid in the well, wash three times with PBS, 200 μl/well, pat dry by hand; add Goat anti-human secondary antibody, diluted in 5% milk, 100 μl/well; incubate for 1 h, tap the edge of the ELISA plate every 15 min to promote the reaction; preheat the TMB substrate at room temperature, and turn on the microplate reader to preheat; wash 5 times with PBS, 250 μl/well, the first three times 5 min, the last two times 10 min, pat dry by hand; add 50 μl/well of TMB substrate AB to each well, and develop color at room temperature for 20 min; use a scanner to scan and record the pictures, add 50 μl/well of stop solution, use enzyme The standard instrument reads OD450 and archives.

IL-4 = molecular target: T3, IL-4 (UniProt P05112 25-153); assay: indirect ELISA, factor coated at 1 µg/ml
T3 construct: Purchased coating factor
T3 sequence (looked up): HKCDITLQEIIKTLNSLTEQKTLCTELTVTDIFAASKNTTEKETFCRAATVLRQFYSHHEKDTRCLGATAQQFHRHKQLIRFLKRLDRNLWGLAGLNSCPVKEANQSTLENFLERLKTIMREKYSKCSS
Description: as §1

IL-1β = molecular target: T4, IL-1β (UniProt P01584 117-269); assay: indirect ELISA, factor coated at 1 µg/ml
T4 construct: Purchased coating factor
Description: as §1

C3 = molecular target: T5, C3 (UniProt P01024 23-1663, limits assumed); assay: indirect ELISA, factor coated at 1 µg/ml
T5 construct: Purchased coating factor
T5 sequence (P01024 23-1663 limits assumed): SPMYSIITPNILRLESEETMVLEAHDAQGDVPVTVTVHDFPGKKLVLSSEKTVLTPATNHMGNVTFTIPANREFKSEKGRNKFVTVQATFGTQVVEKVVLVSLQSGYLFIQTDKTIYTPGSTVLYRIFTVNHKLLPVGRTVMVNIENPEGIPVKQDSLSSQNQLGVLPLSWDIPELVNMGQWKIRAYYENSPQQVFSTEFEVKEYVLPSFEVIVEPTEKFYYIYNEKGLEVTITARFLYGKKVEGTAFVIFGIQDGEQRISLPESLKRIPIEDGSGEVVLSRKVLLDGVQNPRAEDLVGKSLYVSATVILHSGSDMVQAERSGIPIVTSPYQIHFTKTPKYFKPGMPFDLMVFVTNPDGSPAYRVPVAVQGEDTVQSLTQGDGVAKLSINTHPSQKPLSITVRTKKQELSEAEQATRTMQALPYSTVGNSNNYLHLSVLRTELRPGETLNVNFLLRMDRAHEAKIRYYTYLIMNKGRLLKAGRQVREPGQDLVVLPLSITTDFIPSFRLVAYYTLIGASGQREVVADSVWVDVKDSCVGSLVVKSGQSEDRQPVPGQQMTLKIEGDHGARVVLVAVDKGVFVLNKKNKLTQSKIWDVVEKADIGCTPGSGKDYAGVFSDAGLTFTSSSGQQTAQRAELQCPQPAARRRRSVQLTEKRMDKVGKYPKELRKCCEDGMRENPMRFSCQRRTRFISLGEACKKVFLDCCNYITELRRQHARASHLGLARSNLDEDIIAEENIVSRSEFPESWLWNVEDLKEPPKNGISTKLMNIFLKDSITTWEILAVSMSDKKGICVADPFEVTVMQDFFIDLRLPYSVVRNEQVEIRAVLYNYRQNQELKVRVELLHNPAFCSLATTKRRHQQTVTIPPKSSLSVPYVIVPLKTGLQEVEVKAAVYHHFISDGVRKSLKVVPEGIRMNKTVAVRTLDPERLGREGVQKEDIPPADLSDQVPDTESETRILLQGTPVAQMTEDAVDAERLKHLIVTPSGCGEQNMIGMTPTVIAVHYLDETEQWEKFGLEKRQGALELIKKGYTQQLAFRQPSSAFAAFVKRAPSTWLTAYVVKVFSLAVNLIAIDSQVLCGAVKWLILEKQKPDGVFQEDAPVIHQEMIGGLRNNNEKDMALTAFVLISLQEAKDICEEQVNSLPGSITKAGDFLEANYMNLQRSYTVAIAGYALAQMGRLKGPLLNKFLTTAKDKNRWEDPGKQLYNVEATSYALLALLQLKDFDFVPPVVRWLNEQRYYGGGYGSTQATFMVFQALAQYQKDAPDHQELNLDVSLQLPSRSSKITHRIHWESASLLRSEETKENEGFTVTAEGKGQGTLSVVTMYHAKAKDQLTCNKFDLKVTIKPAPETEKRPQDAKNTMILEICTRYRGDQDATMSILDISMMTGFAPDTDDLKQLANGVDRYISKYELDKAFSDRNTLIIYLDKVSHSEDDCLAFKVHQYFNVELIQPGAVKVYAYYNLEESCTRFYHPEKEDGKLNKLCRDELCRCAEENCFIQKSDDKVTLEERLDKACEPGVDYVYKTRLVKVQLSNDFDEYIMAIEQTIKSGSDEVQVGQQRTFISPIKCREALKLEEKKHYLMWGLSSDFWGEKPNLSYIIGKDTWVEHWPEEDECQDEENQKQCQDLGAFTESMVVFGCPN
Description: as §1

IL-8 = molecular target: T6, IL-8 (UniProt P10145 28-99, limits assumed); assay: indirect ELISA, factor coated at 1 µg/ml
T6 construct: Purchased coating factor
T6 sequence (looked up): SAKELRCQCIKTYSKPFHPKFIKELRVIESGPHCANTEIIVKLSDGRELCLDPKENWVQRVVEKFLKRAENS
Description: as §1

IL-2 = molecular target: T7, IL-2 (UniProt P60568 21-153); assay: indirect ELISA, factor coated at 1 µg/ml
T7 construct: Purchased coating factor
T7 sequence (P60568 21-153 limits assumed): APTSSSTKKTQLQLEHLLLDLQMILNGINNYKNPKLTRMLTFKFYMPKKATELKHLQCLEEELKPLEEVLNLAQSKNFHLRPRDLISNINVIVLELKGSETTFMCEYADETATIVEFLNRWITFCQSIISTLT
Description: as §1

IL-1α = molecular target: T8, IL-1α (UniProt P01583 113-271); assay: indirect ELISA, factor coated at 1 µg/ml
T8 construct: Purchased coating factor
T8 sequence (looked up): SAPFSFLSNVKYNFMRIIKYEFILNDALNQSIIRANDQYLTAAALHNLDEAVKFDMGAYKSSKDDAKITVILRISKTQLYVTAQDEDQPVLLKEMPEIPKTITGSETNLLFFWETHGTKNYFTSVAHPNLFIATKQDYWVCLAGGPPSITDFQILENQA
Description: as §1

B1: Improved Eculizumab monoclonal antibody H1L0 (antibody, human IgG1, kappa, V domains shown)
VH: QVQLVQSGGGVVQPGASVKVSCKASGYIFSNYWIQWVRQAPGQGLEWMGEILPGSGSTEYTENFKDRVTMTRDTSTSTVYMELSSLRSEDTAVYYCARYFFGSSPNWYFDVWGQGTLVTVSS
VL: DIQMTQSPSSLSASVGDRVTITCGASENIYGALNWYQQKPGKAPKLLIYGATNLADGVPSRFSGSGSGTDFTLTISSLQPEDFATYYCQNVLNTPLTFGQGTKVEIKR
notes: also called Improved H1L0; H1L0 (Improved)
- EC50 (complement protein C5): 0.00382 µg/mL and 0.0255 nM
- binding result [1]: no binding
- binding result (IL-4): no binding
- binding result (IL-1β): no binding
- binding result (C3): no binding
- binding result (IL-8): no binding
- binding result (IL-2): no binding
- binding result (IL-1α): no binding

B2: Improved Eculizumab monoclonal antibody H3L0 (antibody, human IgG1, kappa, V domains shown)
VH: B1 VH with M70L, R72T, T74S, S77T, V79A, S84K, R87Q, S88F, E89D
VL: B1 VL
notes: also called Improved H3L0; H3L0 (Improved)
- binding result [1]: no binding
- binding result (IL-4): no binding
- binding result (IL-1β): no binding
- binding result (C3): no binding
- binding result (IL-8): no binding
- binding result (IL-2): no binding
- binding result (IL-1α): no binding

— patent US20240067745A1 (ABMAX BIOTECHNOLOGY, published 2024)
